Experimental data from article PMC5544353.

Biological target: Reconstituted CENP-A chromatin (CENP-A nucleosome arrays with Myc-tagged histone H4) (UniProt Q569M3)
Assay: chromatin-bead binding read by immunofluorescence

Chain of UniProt Q569M3 (Q569M3 whole entry, looked up): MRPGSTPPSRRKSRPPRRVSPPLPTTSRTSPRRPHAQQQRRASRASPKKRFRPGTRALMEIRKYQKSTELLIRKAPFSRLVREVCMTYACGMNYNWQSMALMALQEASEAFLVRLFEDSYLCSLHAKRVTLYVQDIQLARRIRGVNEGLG

binding as percent of full-length M18BP1-2	fold enrichment on CENP-A chromatin relative to H3 chromatin	Substance
53%		M18BP1-2 truncation, amino acids 747-944 (in vitro translated) (domain or fragment)
	2.5 fold	Xenopus laevis M18BP1-1 (natural protein)
	5 fold	Xenopus laevis M18BP1-2, full length (natural protein)
